In the RNAGym collection of RNA variant scans (doi:10.1073/pnas.2313332121):

B1: TPR t1 (parent)
chain: GACCAAUCUGCCCUCAGAGCUCGAGAACAUCUUCGGAUGCAGAGGAGGCAGGCUUCGGUGGCGCGAUAGCGCCAACGUCCUCAACCUCCAAUGCAUCCCACCACAUGAUGAUGCCUGAAGAGCCUUGGUUUUUUG

Variants of: B1
Assay: polymerase ribozyme fitness, log enrichment relative to wild type (log ratio); higher = more active; in vitro selection for triplet polymerase activity
In short: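 Both subunits of a heterodimeric triplet polymerase ribozyme were given their own mutant library, built by PCR and transcribed. Each library was annealed with a biotinylated primer, the partner subunit and triplets, incubated frozen at −7 °C, and its extended constructs gel-excised, captured on streptavidin beads and amplified by RT-PCR, all in one round done in triplicate. Fitness is the logarithm of genotype enrichment relative to wild-type enrichment, with replicates averaged by inverse-variance weighting. That logarithm is base 2, and Illumina-sequenced genotypes needed ≥10 input reads and ≥1 read per output.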

| Variant | polymerase ribozyme fitness (log ratio) |
| --- | --- |
| C49G C70G G77U U78A C85A | -2.95 |
| C49A C70A C97A G120U U130G | -6.14 |
| G48C G63C | -2.72 |
| G48C G63A | -0.954 |
| G48U U132A | -0.856 |
| G48U C76U C89G C124U G128U U132C | -2.96 |
| C49A C53U G61A C101A | -0.913 |
| C49A C114U | -1.61 |
| G48U C89G | -1.92 |
| G48U C62U | -0.185 |
| C49A G71A C82A G120U | -2.99 |
| G48U C53G C62U C73A U132A | -0.636 |
| C49A C64U G117U | -2.9 |
| C49A A105C A118G U130A | -3.62 |
| C49A A50C G117U | -3.66 |
| G48C G71C | -0.845 |
| C49A A50C C86U | -0.434 |
| C49G G52A C70A U96C | -4.29 |
| C49A G58A | -0.0101 |
| C49A G93U U112G | -1.59 |
| G48U G58U G60U C82G C123U | 0.461 |

| Variant | polymerase ribozyme fitness (log ratio) |
| --- | --- |
| G48U A50G U92C A108G | -5.83 |
| C49G A90U | -2.58 |
| C49A U78G U87G A121G G128U | -0.14 |
| G48U G71U | -1.01 |
| G48U G71A | -1.06 |
| C49A G127U | -1.02 |
| G48U A84G | 0.021 |
| G48U G61U | 0.43 |
| C49A A50G C88A | -1.58 |
| C49G G93U C94A | -3.18 |
| G48U C53G | -1.34 |
| G48U C53U | -2.55 |
| C49G G63C A111G G120A | -2.1 |
| C49A C73A C88U A91U | -1.03 |
| G48U C114U | -2.73 |
| C49G A84U G110C | -5.43 |
| C49A C104G A111C | -6.5 |
| C49A C124U U132C | 1.03 |
| G48C G77A | -1.21 |
| C49G A83G | 0.789 |
| C49G G58C C79A | -5.19 |

| Variant | polymerase ribozyme fitness (log ratio) |
| --- | --- |
| G48U C123U | 0.57 |
| G48C U78G | -0.55 |
| C49G G71U | -1.7 |
| C49G G71A | -0.461 |
| G48U U54C | -1.22 |
| C49G G110U | -2.51 |
| C49A G61U U87C C98A | -3.8 |
| C49A G63U | -1.35 |
| C49A U78A U129G | -1.45 |
| G48U C72G U96C | -1.54 |
| G48U C102A A111G | -1.65 |
| C49A G61C C80G C104A G117U | -8.34 |
| G48U C56U C104A | -2.25 |
| G48U G110U U125A | -2.52 |
| C49A C89U U92C A95G U96A G113A U133A | -3.76 |
| C49G G57U A83U G110A A121G | -1.99 |
| G48U C49G U96A | -1.45 |
| C49A C70A G120C U126C U131G | -1.57 |
| C49G G71A C124G | 0.642 |
| C49A G107U | -4.61 |
| C49A G117C | -3.75 |

| Variant | polymerase ribozyme fitness (log ratio) |
| --- | --- |
| C49G G113U | -2.52 |
| C49G G113A | -1.08 |
| G48C G60U A105C U116C | -5.8 |
| C49A C80A U112A | -5.57 |
| G48U G58U C72U | 0.601 |
| G48U G51C A95C A111G U134A | -4.35 |
| G48C G61U C124A | 1.51 |
| C49A C79A A119G | -2.87 |
| C49A G120U | -0.22 |
| C49G G71A U112A | -1.11 |
| C49G C101U U131C | -0.189 |
| G48U U59C C70G | -6.09 |
| G48U U112C | 0.623 |
| C49G C62A | -1.32 |
| G48U C86A A91C | -1.98 |
| C49G C101G | -1.92 |
| C49G C82U G93U G117U | -4.66 |
| C49G A103U | -5.7 |
| C49A G63U C97G U132A | -6.24 |
| C49A C72U G113A G128C | -4.46 |
| G48C U131A | -1.82 |
